± gives the uncertainty stated by the source.

This series in a line: protein stability index of a GFP-peptide fusion (yeast GPS) (PSI 1-4); higher = more stable; sorted into four equal gates, so the index is relative within each strain. In outline: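 Tiled 17-residue yeast protein peptides were fused downstream of GFP in a plasmid that also expresses Cherry, and the pooled library was carried in yeast. Mid-log cultures in leucine-free medium were sorted into four equal gates by GFP/Cherry fluorescence ratio, and plasmids from each gate were PCR-amplified and Illumina-sequenced, with reads assigned to strains by barcodes. The protein stability index for each peptide was each gate's read frequency times its gate number, summed.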

Consider IVRPAKGVATTREKVLE [RRP46], for which the protein stability index is, setting by setting: (doa10∆) 3.43 ± 0.16; (pdr5∆) 2.83 ± 0.1; (san1∆) 2.21 ± 0.12; (ubr1∆) 3.09 ± 0.082.

For IVTALLESDVNIALVSK [SRP54], the protein stability index runs as follows: (doa10∆) 3.22 ± 0.18; (pdr5∆) 3.19 ± 0.088; (san1∆) 3.24 ± 0.12; (ubr1∆) 3.35 ± 0.12.

Turning to IWVGEWKEVLAHNPELE [RPO31], the protein stability index is, setting by setting: (doa10∆) 3 ± 0.087; (pdr5∆) 2.36 ± 0.078; (san1∆) 2.74 ± 0.072; (ubr1∆) 2.74 ± 0.053.

Consider IYAKYGAKGSTLIVVPF [FAS2], for which the protein stability index reads like this: (doa10∆) 2.4 ± 0.072; (pdr5∆) 2.72 ± 0.073; (san1∆) 2.34 ± 0.11; (ubr1∆) 2.13 ± 0.05.

As to IYATFLNESDCLEACSF [YDL116W/NUP84], the protein stability index (doa10∆) came out at 2.56 ± 0.091, the protein stability index (pdr5∆) amounted to 2.85 ± 0.087, the protein stability index (san1∆) stood at 2.6 ± 0.13 and the protein stability index (ubr1∆) was 2.59 ± 0.057.

In turn, KAAFEDLKSKGLIPADA [FAS1] came in with a protein stability index (doa10∆) of 3 ± 0.09, a protein stability index (pdr5∆) of 3.29 ± 0.1, a protein stability index (san1∆) of 3.14 ± 0.073 and a protein stability index (ubr1∆) of 3.35 ± 0.066.

Regarding KADAQREKALNEEAEAR [RPL19A], the protein stability index is 3.22 ± 0.083 (doa10∆), 3.45 ± 0.2 (pdr5∆), 3.23 ± 0.081 (san1∆) and 3.33 ± 0.098 (ubr1∆).

KAELEKQKSWVPSYIHV [YIL149C/MLP2]: the protein stability index is, setting by setting: (doa10∆) 2.09 ± 0.052; (pdr5∆) 2.33 ± 0.041; (san1∆) 2.15 ± 0.077; (ubr1∆) 2.31 ± 0.035.

With KAISVGANTSAAQTLLQ [PRE9], the protein stability index by setting is: (doa10∆) 2.74 ± 0.054; (pdr5∆) 2.92 ± 0.052; (san1∆) 2.77 ± 0.053; (ubr1∆) 2.92 ± 0.046.

As for KAKVDDLVLGKPLADLR [YLR335W/NUP2], the protein stability index by setting is: (doa10∆) 3.23 ± 0.25; (pdr5∆) 3.56 ± 0.21; (san1∆) 3.39 ± 0.072; (ubr1∆) 3.35 ± 0.09.

Take KALRRKIYINLALGSHN [SSN2]: the protein stability index (doa10∆) turned out to be 3.05 ± 0.21, the protein stability index (pdr5∆) came to 2.76 ± 0.15, the protein stability index (san1∆) is 2.4 ± 0.11 and the protein stability index (ubr1∆) came out at 3.48 ± 0.15.

Turning to KAPLQPNSERETDHANT [IRR1], the protein stability index is, setting by setting: (doa10∆) 2.6 ± 0.083; (pdr5∆) 2.98 ± 0.062; (san1∆) 2.59 ± 0.068; (ubr1∆) 2.88 ± 0.047.

For KAPTKLDDPEAVSKDPL [DIS3], the protein stability index (doa10∆) stood at 3.35 ± 0.089, the protein stability index (pdr5∆) was determined as 3.45 ± 0.12, the protein stability index (san1∆) came to 3.17 ± 0.058 and the protein stability index (ubr1∆) stood at 3.26 ± 0.068.

Turning to KARSPGIAKPNAIQTEV [SIR4], the protein stability index runs as follows: (doa10∆) 3.36 ± 0.067; (pdr5∆) 3.35 ± 0.092; (san1∆) 3.18 ± 0.075; (ubr1∆) 3.22 ± 0.066.

As to KASKEIKKVICGAWEPA [SIR3], the protein stability index is, setting by setting: (doa10∆) 2.15 ± 0.25; (ubr1∆) 2.67 ± 0.11.

Take KASVTIVFDNTDKSNSP [SMC2]: the protein stability index was 2.99 ± 0.045 (doa10∆), 3.02 ± 0.044 (pdr5∆), 2.9 ± 0.042 (san1∆) and 3.156 ± 0.028 (ubr1∆).

KAVKLRKSYKNQIADLS [ROX3] yielded a protein stability index (doa10∆) of 2.74 ± 0.1, a protein stability index (pdr5∆) of 2.85 ± 0.07, a protein stability index (san1∆) of 2.77 ± 0.095 and a protein stability index (ubr1∆) of 2.95 ± 0.037.

Regarding KCLNYRNVNWIERLTKR [ITC1], the protein stability index by setting is: (doa10∆) 2.91 ± 0.084; (pdr5∆) 3.07 ± 0.052; (san1∆) 2.96 ± 0.05; (ubr1∆) 3.09 ± 0.038.

Take KCLVEKSICFENCLNND [SWI1]: the protein stability index is, setting by setting: (doa10∆) 1.81 ± 0.097; (pdr5∆) 2.67 ± 0.057; (san1∆) 2.69 ± 0.064; (ubr1∆) 2.61 ± 0.078.

Consider KCQELVTNIRRIIQDNI [RRP46], for which the protein stability index by setting is: (doa10∆) 2.5 ± 0.15; (pdr5∆) 2.81 ± 0.1; (san1∆) 3.08 ± 0.25; (ubr1∆) 1.94 ± 0.11.

As for KCSATNRIIKADDHASV [RPS21A], the protein stability index turned out to be 2.92 ± 0.053 (doa10∆), 2.96 ± 0.053 (pdr5∆), 3.13 ± 0.049 (san1∆) and 3.11 ± 0.039 (ubr1∆).

For KDAISFIKEIHKSIELI [YCS4], the protein stability index was determined as 2 ± 0.066 (doa10∆), 2.81 ± 0.065 (pdr5∆), 3.17 ± 0.055 (san1∆) and 2.69 ± 0.037 (ubr1∆).

With KDAQKKDIEKLTNEISD [YIL149C/MLP2], the protein stability index by setting is: (doa10∆) 2.54 ± 0.086; (pdr5∆) 2.98 ± 0.07; (san1∆) 2.65 ± 0.061; (ubr1∆) 2.49 ± 0.078.

Take KDENNTANDQYSSILGN [YCG1]: the protein stability index runs as follows: (doa10∆) 3.02 ± 0.047; (pdr5∆) 3.2 ± 0.046; (san1∆) 3.01 ± 0.032; (ubr1∆) 3.08 ± 0.034.

Take KDEYLAQLDGRIGVLQA [NSL1]: the protein stability index (doa10∆) was determined as 2.08 ± 0.064, the protein stability index (pdr5∆) turned out to be 2.4 ± 0.046, the protein stability index (san1∆) stood at 2.41 ± 0.074 and the protein stability index (ubr1∆) came to 2.99 ± 0.046.

In turn, KDFIENVNNRFDNFLTE [BRN1] had a protein stability index (doa10∆) of 3.06 ± 0.086, a protein stability index (pdr5∆) of 3.04 ± 0.093, a protein stability index (san1∆) of 3.2 ± 0.068 and a protein stability index (ubr1∆) of 2.88 ± 0.066.

Values taken from the supplement of paper PMC9732359.
